Publication PMC11574021, “CEP192 localises mitotic Aurora-A activity by priming its interaction with TPX2” (The EMBO Journal, 2024)
Each block holds one molecule with its values, some of them ahead of it.

Tests used:
[1] = test system: Aurora-A-pT288 in U251 cells; assay: Western blot densitometry of Aurora-A-pT288, mitotic U251 cells; assay type: cell-based, Homo sapiens; settings: mitotic U251 (and RPE1) lysates, siRNA 48 h, in words
Protocol: For western blotting analysis of mitotic lysates, cells were synchronised in mitosis with 10 µM S-Trityl-L-cysteine (STLC, Bio-Techne, 2191-50), an Eg5 inhibitor, for 20 h prior to collecting by mitotic shake-off. For measuring monopolar spindle diameter and counting centriolar foci by immunofluorescence, cells were treated with 10 µM STLC for 1 h and 4 h prior to fixation, respectively.
As noted in the figures, the following drugs were incubated with cells for 30 min at 37 °C: Aurora-B-i ZM447439 2 µM [10 mM], PLK1-I BI2536 1 µM [10 mM] and Aurora-A-i MLN8237 [5 mM] was used at 250 and 500 nM in U251 and RPE1 cells, respectively. Drugs were resuspended in DMSO to the stock concentrations indicated in square brackets. BI2536 (HY-50698), MLN8237 (HY-10971) and ZM447439 (HY-10128) were all purchased from MedChemExpress. For western blotting, a 20-min pre-treatment with proteasome inhibitor (20 µM MG-132, MerckMillipore, 47490 [20 mM]) was required prior to the addition of DMSO control or kinase inhibitors. This prevented mitotic exit as a consequence of checkpoint override following Aurora-A and Aurora-B inhibitor addition.
Cells were lysed on ice for 30 min in lysis buffer (50 mM tris pH 8.0, 300 mM NaCl, 0.2%(v/v) NP-40, 10%(v/v) glycerol, protease inhibitor cocktail C, phosphatase inhibitor cocktail 3 (Sigma, 1:200 dilution), 100 nM okadaic acid (Enzo, ALX-350-003-C100)). Lysates were then centrifuged at 14,000 × g, 15 min, 4 °C, the supernatants were transferred to a fresh tube, and the pellet was discarded. Protein concentrations were measured by Bradford assay using Protein Assay Dye Reagent Concentrate (Bio-Rad Laboratories, 5000006). NuPage LDS sample buffer, supplemented with NuPAGE sample reducing agent (Invitrogen) were added prior to boiling for 10 min at 90 °C. […]
Densitometric quantification of western blots was also performed in ImageJ. Intensity was measured in a rectangular region of interest (ROI) around each band. […] An adjacent region was also measured to account for background intensity.

[2] = test system: PPP1CA-pT320, PRC1-pT481 and Histone-H3-pS10 in U251 cells; assay: Western blot, mitotic phosphorylations (PPP1CA-pT320, PRC1-pT481, Histone-H3-pS10), asynchronous U251; assay type: cell-based, Homo sapiens; settings: asynchronous U251, siRNA 48 h
Protocol: Cells were lysed on ice for 30 min in lysis buffer (50 mM tris pH 8.0, 300 mM NaCl, 0.2%(v/v) NP-40, 10%(v/v) glycerol, protease inhibitor cocktail C, phosphatase inhibitor cocktail 3 (Sigma, 1:200 dilution), 100 nM okadaic acid (Enzo, ALX-350-003-C100)). Lysates were then centrifuged at 14,000 × g, 15 min, 4 °C, the supernatants were transferred to a fresh tube, and the pellet was discarded. Protein concentrations were measured by Bradford assay using Protein Assay Dye Reagent Concentrate (Bio-Rad Laboratories, 5000006). NuPage LDS sample buffer, supplemented with NuPAGE sample reducing agent (Invitrogen) were added prior to boiling for 10 min at 90 °C. Equal amounts of protein, between 8–20 µg/lane, were loaded into pre-cast 4–12% Bis-Tris gels (Invitrogen, NP0322BOX) and proteins separated in 1x MOPS buffer (Invitrogen) and transferred to nitrocellulose membrane (0.45 µM). Nitrocellulose was then blocked in 5% milk (wt/v) in TBS, 0.1% Tween (v/v) (TBST) for 1 h. Primary and secondary antibodies were diluted in 5% milk, TBST and incubated overnight at 4 °C or for 1 h at room temperature, respectively. Species-specific secondary antibodies conjugated to horseradish peroxidase (HRP) were used (anti-Mouse, Cytiva NA931V; anti-Rabbit, Cytiva NA934; anti-Sheep, Jackson 713-035-003). Membranes were washed for 1 h in TBST, changing the buffer five times, after each antibody incubation.
siRNA depletion was carried out by reverse transfection using oligofectamine (Thermo Scientific, 12252011) and lipofectamine RNAiMax (Thermo Scientific, 13778075), according to the manufacturer’s instructions, for U251 and RPE1 cells, respectively. For immunofluorescence, 1 × 10^5 cells were seeded in six-well plates and simultaneously transfected with 60 pmol siRNA duplex and 3 µl transfection reagent diluted in 200 µl Opti-MEM serum-free medium. Growth medium was added to a final volume of 2 ml. For western blotting, 1 × 10^6 cells were seeded in 10 cm dishes and transfected with 300 pmol siRNA duplex and 15 µl transfection reagent diluted in 1000 µl Opti-MEM. […]

Aurora-A = settings: from fluorescence polarisation; ref (Burgess et al, [2015]; McIntyre et al, [2017]; Zorba et al, [2014]); cited from earlier work
Protocol: This is a higher affinity than observed in a previous study that used CEP192 proteins fused to MBP, a large protein tag that might have affected the interaction (Park et al, [2023]). For context, the affinity of Aurora-A for its other key mitotic partners are: TPX2_1-43 (Kd 0.3–2 μM from ITC) and TACC ...

[3] = biological target: FAM-CEP192 501–533 (human) (UniProt Q8TEP8); assay: fluorescence polarisation; direct fluorescence anisotropy: Aurora-A diluted across the plate, 50 nM tracer FAM-CEP192 501–533; 25 mM HEPES pH 7.5, 150 mM NaCl, 2 mM DTT, 5 mM MgCl2, 0.01% Tween 20; 1 h at room temperature
[4] = biological target: T1, phosphorylated Aurora-A^CAKD (Aurora-A 122–403 C290A C393A, not co-expressed with lambda phosphatase) (human, UniProt O14965 122-403, C290A | C393A, phosphorylated (sites of this preparation not printed in the text shown)); assay: cell-based or functional assay
T1 sequence (looked up): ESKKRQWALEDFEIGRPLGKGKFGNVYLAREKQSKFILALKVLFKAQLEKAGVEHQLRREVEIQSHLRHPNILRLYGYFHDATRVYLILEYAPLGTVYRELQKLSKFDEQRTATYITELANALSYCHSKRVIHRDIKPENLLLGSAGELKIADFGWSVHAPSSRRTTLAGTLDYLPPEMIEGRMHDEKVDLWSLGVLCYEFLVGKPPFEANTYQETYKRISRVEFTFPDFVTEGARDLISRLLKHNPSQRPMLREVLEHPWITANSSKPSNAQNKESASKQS

[5] = biological target: T2, unphosphorylated Aurora-A CAKD (Homo sapiens, UniProt O14965, C290A/C393A); assay: Fluorescence anisotropy competition with FAM-TPX2 7-43; assay type: binding; settings: competition with 100 nM FAM-TPX2 7-43, 10 μM unphosphorylated Aurora-A CAKD, n = 3 (Appendix Fig. S4E)
T2 construct: 10 μM Aurora-A kinase domain (phosphorylated or unphosphorylated C290A C393A 122–403); His (N, cleaved yes); made in house; host or cells: E. coli RIL, co-expressed with lambda phosphatase
T2 sequence (O14965 122-403 C290A/C393A): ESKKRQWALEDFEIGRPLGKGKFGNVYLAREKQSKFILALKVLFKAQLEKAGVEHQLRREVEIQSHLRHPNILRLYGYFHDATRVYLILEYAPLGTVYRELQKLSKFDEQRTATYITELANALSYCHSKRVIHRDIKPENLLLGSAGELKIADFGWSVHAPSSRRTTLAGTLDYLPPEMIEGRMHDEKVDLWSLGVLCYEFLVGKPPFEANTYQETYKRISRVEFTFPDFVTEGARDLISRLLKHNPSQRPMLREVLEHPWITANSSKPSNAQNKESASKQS
Protocol: Assays were performed in 25 mM HEPES pH 7.5, 150 mM NaCl, 2 mM DTT, 5 mM MgCl2, 0.01% Tween 20. For CEP192 and TPX2 competition assays 10 μM Aurora-A kinase domain (phosphorylated or unphosphorylated C290A C393A 122–403) was preincubated on ice with 100 nM FAM-TPX2 7-43 or 100 nM FAM-CEP192 501–533. For TACC3 competition, due to weaker binding, 25 μM Aurora-A kinase domain (phosphorylated or unphosphorylated C290A C393A 122–403) was preincubated with 100 nM FAM-TACC3 522-536. Serial dilutions of competitor (CEP192) were performed in triplicate into a low volume 384-well black plate, before the premixed Aurora-A and tracer were added. A control row included no tracer. Plates were left incubating for 1 h at room temperature before the fluorescence anisotropy was measured using a HIDEX plate reader, with excitation at 485 nm and emission at 535 nm. For direct binding experiments, the assay was performed as above, but the Aurora-A (122–403 C290A C393A or point mutants) was diluted across the plate from high to low concentration, before the addition of 50 nM tracer (FAM-CEP192 501–533) to three replicate rows. Buffer only was added to the control row.
Fluorescence anisotropy data were processed using Microsoft Excel to calculate intensity and anisotropy using the equation listed in (Yeo et al, [2013]). The IC50 and Kd values were calculated using Origin (OriginLab) where the data fitted to a sigmoid and are summarised in Appendix Table S3.

[6] = biological target: T3, Aurora-A^M3KD (Aurora-A 122–403 C290A C393A D274N) (human, UniProt O14965 122-403, D274N | C290A | C393A); assay: ITC; CEP192 442–533 titrated into Aurora-A kinase domain (by the legend); 25 °C; 20 mM tris pH 7.5, 200 mM NaCl, 10% glycerol, 5 mM MgCl2; two repeats; settings: both partners purified
T3 construct: Aurora-A kinase domain, human, residues 122-403; also called Aurora-A kinase domain (122–403 C290A C393A D274N); source: E. coli, purified (HisTrap, TEV cleavage, SEC); not shown: His6, N-terminal, cleaved
T3 sequence (looked up): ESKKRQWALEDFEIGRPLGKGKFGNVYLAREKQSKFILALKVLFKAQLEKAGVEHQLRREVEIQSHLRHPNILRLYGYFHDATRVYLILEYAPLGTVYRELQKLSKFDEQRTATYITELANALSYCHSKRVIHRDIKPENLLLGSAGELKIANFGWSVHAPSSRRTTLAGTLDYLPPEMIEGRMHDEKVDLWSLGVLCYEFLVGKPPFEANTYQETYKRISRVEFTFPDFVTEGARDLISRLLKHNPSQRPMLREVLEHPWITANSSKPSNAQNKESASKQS

[7] = biological target: T4, Aurora-A^CAKD (Aurora-A kinase domain, aa 122–403 C290A, C393A), unphosphorylated (human, UniProt O14965 122-403, C290A | C393A); assay: fluorescence polarisation; competition: 25 μM Aurora-A kinase domain preincubated with 100 nM FAM-TACC3 522-536, CEP192 competitor serially diluted; 25 mM HEPES pH 7.5, 150 mM NaCl, 2 mM DTT, 5 mM MgCl2, 0.01% Tween 20; settings: both partners purified
T4 construct: Aurora-A kinase domain, human, residues 122-403, variant lacking surface cysteines; also called Aurora-A 122–403 C290A C393A; unphosphorylated Aurora-A^CAKD; source: E. coli RIL, co-expressed with lambda phosphatase, purified (HisTrap, TEV cleavage, SEC); not shown: His6, N-terminal, cleaved
T4 sequence (looked up): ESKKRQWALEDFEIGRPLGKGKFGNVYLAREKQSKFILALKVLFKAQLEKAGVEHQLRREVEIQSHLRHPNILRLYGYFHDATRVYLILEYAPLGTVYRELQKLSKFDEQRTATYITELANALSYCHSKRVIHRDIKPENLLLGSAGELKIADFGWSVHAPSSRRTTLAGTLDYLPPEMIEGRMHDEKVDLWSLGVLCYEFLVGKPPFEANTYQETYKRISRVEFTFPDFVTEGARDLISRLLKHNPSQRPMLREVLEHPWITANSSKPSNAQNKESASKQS

[8] = biological target: T4, Aurora-A^CAKD (Aurora-A kinase domain, …); assay: fluorescence polarisation; competition: 10 μM unphosphorylated Aurora-A^CAKD preincubated with 100 nM FAM-TPX2 7-43, CEP192 competitor serially diluted; 25 mM HEPES pH 7.5, 150 mM NaCl, 2 mM DTT, 5 mM MgCl2, 0.01% Tween 20; settings: both partners purified

Molecule: 5′-GGAUAUGGUUGAUCCUAUAtt-3′ [siBora]
- activation loop phosphorylation (pT288) of Aurora-A in mitotic cell lysates [1]: no discernible effect
- mitotic phosphorylations (PPP1CA-pT320, PRC1-pT481, Histone-H3-pS10) [2]: increased levels of mitotic phosphorylations

Molecule: TACC3 519-563: TACC3 fragment, literature affinity (ELKEESFRDPAEVLGTGAEVDYLEQFGTSSFKESALRKQSLYLKF; UniProt Q9Y6A5 519-563, looked up, fragment)
- Kd (Aurora-A): ~6 µM

Molecule: Aurora-A^KD R205A (Aurora-A 122–403 R205A) (from UniProt O14965 122-403) (domain or fragment)
- Kd [3]: > 5 µM

Other lines, results leading:

- ADP-Glo, 10 nM phosphorylated Aurora-A^CAKD with kemptide: IC50 of partial inhibition of kinase activity [4]: 32 nM
- IC50 [5]: 3.33 µM
- Kd [6]: 72 nM
- stoichiometry N [6]: 0.67
- IC50 [7]: 5.7 µM
- IC50 [8]: 4.2 µM
B1: human CEP192 442–533 (domain or fragment, UniProt Q8TEP8 442-533, looked up)
chain: IWSPTCERRTCECHESIEKNKDKTDLPQSVVYQNEEGRWVTDLAYYTSFNSKQNLNVSLSDEMNEDFRSGSEAFDLIAQDEEEFNKEHQFIQ
notes: Codon-optimised template from GenScript (CEP192 1-1000); source: E. coli B834 RIL, purified (HisTrap, TEV cleavage, SEC); 15N- or 15N/13C-labelled in Rosetta E. coli for NMR; not shown: His6, N-terminal, cleaved; SUMO, N-terminal, cleaved

- ADP-Glo, 10 nM phosphorylated Aurora-A^CAKD with kemptide: IC50 of inhibition of kinase activity [4]: 220 nM
- IC50 [8]: 19.9 µM
B2: human CEP192 468–533 L484D (domain or fragment, UniProt Q8TEP8 468-533, looked up)
chain: PQSVVYQNEEGRWVTDDAYYTSFNSKQNLNVSLSDEMNEDFRSGSEAFDLIAQDEEEFNKEHQFIQ
notes: source: E. coli B834 RIL, purified (HisTrap, TEV cleavage, SEC); not shown: His6, N-terminal, cleaved; SUMO, N-terminal, cleaved
